The results in this text go back to US20020127541A1 (GOVERNING COUNCIL OF THE UNIVERSITY OF TORONTO, published 2002).

Experiment [1] addresses wild type PS1 (wtPS1) holoprotein (human, UniProt P49768 1-467). As to the kind of experiment: co-immunoprecipitation with anti-PS1 loop or N-terminus antibodies, Western blot. The procedure:
Co-immunoprecipitation and glycerol velocity gradient fractionation were performed as previously described in Yu et al., 1998, J.Biol.Chem. 273:16470-16475. Immunoprecipitations were performed on cell lysates 48 hours after transient transfections. Total proteins (2 mg/ml) were extracted from cultured cells or brain tissue using a lysis buffer (0.2% NP-40, 0.5% Triton X-100, 50 mM Tris-HCl [pH7.6], 150 mM NaCl, 2 mM EDTA, 2 mM PMSF, […] each of aprotinin, leupeptin, pepstatin). […] New York, Cold Spring Harbor Laboratory Press. Protein A Sepharose was subsequently added to the antibody-antigen complex and incubated for 2 hours at 4° C. The beads were washed four times with a washing buffer (0.2% NP-40, 50 mM Tris-HCl[pH7.6], 150 mM NaCl, 2 mM EDTA). IP products were resolved by SDS-PAGE and investigated for the co-immunoprecipitated partners with the corresponding antibody and detection with ECL (Amersham). […]
Western blots of anti-PS 1 immunoprecipitates from PS1 transfected HEK293 cells were examined for the presence of other arm proteins expressed endogenously in HEK293 cells. Endogenous β-catenin, but not endogenous α-catenin, γ-catenin, or calnexin were detected in Western blots of immunoprecipitation products from HEK293 cells stably transfected with PS1, using either antibodies to PS1 cytoplasmic loop or to the PS1 N-terminus.
A general note: Immunoblotting shows a protein as a band on a membrane.

For experiment [2], the target named is T1, endogenous calnexin (UniProt P27824 21-592).
T1 construct: Endogenous endoplasmic reticulum protein used as a control
T1 sequence (looked up): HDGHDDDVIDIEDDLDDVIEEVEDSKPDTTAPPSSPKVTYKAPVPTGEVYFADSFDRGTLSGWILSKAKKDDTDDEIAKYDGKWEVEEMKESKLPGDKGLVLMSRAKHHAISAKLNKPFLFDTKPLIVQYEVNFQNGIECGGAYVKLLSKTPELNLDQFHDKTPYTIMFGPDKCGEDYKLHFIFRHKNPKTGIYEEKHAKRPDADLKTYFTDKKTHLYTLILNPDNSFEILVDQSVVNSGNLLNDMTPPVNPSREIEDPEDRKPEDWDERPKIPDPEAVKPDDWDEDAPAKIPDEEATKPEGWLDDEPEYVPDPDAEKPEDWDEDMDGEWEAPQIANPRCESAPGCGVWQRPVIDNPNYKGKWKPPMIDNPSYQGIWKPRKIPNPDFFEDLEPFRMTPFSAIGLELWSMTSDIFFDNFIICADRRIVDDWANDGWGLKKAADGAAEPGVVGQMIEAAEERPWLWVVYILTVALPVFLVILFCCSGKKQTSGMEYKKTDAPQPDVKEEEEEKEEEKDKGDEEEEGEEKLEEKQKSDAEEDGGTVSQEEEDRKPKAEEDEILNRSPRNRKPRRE
As to the kind of experiment: co-immunoprecipitation.

B1: endogenous α-catenin (other)
chain: TAVHAGNINFKWDPKSLEIRTLAVERLLEPLVTQVTTLVNTNSKGPSNKKRGRSKKAHVLAASVEQATENFLEKGDKIAKESQFLKEELVAAVEDVRKQGDLMKAAAGEFADDPCSSVKRGNMVRAARALLSAVTRLLILADMADVYKLLVQLKVVEDGILKLRNAGNEQDLGIQYKALKPEVDKLNIMAAKRQQELKDVGHRDQMAAARGILQKNVPILYTASQACLQHPDVAAYKANRDLIYKQLQQAVTGISNAAQATASDDASQHQGGGGGELAYALNNFDKQIIVDPLSFSEERFRPSLEERLESIISGAALMADSSCTRDDRRERIVAECNAVRQALQDLLSEYMGNAGRKERSDALNSAIDKMTKKTRDLRRQLRKAVMDHVSDSFLETNVPLLVLIEAAKNGNEKEVKEYAQVFREHANKLIEVANLACSISNNEEGVKLVRMSASQLEALCPQVINAALALAAKPQSKLAQENMDLFKEQWEKQVRVLTDAVDDITSIDDFLAVSENHILEDVNKCVIALQEKDVDGLDRTAGAIRGRAARVIHVVTSEMDNYEPGVYTEKVLEATKLLSNTVMPRFTEQVEAAVEALSSDPAQPMDENEFIDASRLVYDGIRDIRKAVLMIRTPEELDDSDFETEDFDVRSRTSVQTEDDQLIAGQSARAIMAQLPQEQKAKIAEQVASFQEEKSKLDAEVSKWDDSGNDIIVLAKQMCMIMMEMTDFTRGKGPLKNTSDVISAAKKIAEAGSRMDKLGRTIADHCPDSACKQDLLAYLQRIALYCHQLNICSKVKAEVQNLGGELVVSGVDSAMSLIQAAKNLMNAVVQTVKASYVASTKYQKSQGMASLNLPAVSWKMKAPEKKPLVKREKQDETQTKIKRASQKKHVNPVQALSEFKAMDSI
notes: Endogenous protein of HEK293 cell lysates
On to B1, for which the binding result in experiment [1] is “no binding”.

B2: Myc-tagged hNPRAP528-1084 (other, human)
chain: ALKMPIIQDALAVLTNAVIIPHSGWENSPLQDDRKIQLHSSQVLRNATGCLRNVSSAGEEARRRMRECDGLTDALLYVIQSALGSSEIDSKTVENCVCILRNLSYRLAAETSQGQHMGTDELDGLLCGEANGKDAESSGCWGKKKKKKKSQDQWDGVGPLPDCAEPPKGIQMLWHPSIVKPYLTLLSECSNPDTLEGAAGALQNLAAGSWKWSVYIRAAVRKEKGLPILVELLRIDNDRVVCAVATALRNMALDVRNKELIGKYAMRDLVHRLPGGNNSNNTASKAMSDDTVTAVCCTLHEVITKNMENAKALRDAGGIEKLVGISKSKGDKHSPKVVKAASQVLNSMWQYRDLRSLYKKDGWSQYHFVASSSTIERDRQRPYSSSRTPSISPVRVSPNNRSASAPASPREMISLKERKTDYECTGSNATYHGGKGEHTSRKDAMTAQNTGISTLYRNSYGAPAEDIKHNQVSAQPVPQEPSRKDYETYQPFQNSTRNYDESFFEDQVHHRPPASEYTMHLGLKSTGNYVDFYSAARPYSELNYETSHYPASPDSWV
notes: Transiently expressed in HEK293 cells; also called myc-hNPRAP
As for B2, the binding result in experiment [2] is “no binding”.
